These results are taken from patent EP4692122A1, “HUMANIZED ANTIBODIES TARGETING EPHA10” (priority 2023, dated 2024).

The target of assay [1] is T1, human EphA10 on MDA-MB-231 human EphA10 overexpressing cell line (human, UniProt Q5JZY3 34-1008).
T1 construct: whole, on cells; also called hEphA10; cell-expressing-EphA10
T1 sequence (looked up): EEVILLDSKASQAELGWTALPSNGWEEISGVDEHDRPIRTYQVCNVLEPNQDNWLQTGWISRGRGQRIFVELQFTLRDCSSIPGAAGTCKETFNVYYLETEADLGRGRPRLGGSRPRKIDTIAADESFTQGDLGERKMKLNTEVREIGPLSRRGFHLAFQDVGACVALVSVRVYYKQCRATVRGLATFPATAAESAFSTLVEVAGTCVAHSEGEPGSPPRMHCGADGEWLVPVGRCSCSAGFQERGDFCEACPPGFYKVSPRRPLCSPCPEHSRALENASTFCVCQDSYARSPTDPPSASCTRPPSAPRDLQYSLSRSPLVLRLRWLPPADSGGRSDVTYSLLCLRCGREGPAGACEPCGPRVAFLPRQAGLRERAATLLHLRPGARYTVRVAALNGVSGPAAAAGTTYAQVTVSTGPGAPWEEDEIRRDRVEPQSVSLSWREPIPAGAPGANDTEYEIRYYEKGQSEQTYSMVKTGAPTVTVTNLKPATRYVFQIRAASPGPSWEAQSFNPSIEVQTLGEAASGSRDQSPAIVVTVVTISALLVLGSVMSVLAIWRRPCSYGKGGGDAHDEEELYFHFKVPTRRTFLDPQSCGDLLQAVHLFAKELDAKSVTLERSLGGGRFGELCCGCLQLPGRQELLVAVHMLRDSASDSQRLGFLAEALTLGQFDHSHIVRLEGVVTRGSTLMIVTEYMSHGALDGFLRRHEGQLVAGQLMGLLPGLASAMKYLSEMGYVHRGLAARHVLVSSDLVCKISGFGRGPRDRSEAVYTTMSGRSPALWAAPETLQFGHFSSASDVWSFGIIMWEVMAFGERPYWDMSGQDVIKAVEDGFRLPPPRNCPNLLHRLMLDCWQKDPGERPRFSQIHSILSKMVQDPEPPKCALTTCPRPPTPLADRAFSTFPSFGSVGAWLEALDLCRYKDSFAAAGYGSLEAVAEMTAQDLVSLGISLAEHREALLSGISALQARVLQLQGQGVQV
Description: flow cytometry on MDA-MB-231 human EphA10 overexpressing cells, 500 ng antibody. A general note: A flow cytometer gives signals particle by particle.

Assay [2] deals with T2, mouse EphA10 on mouse EphA10 overexpressing cell line (mouse, UniProt Q8BYG9 23-1007).
T2 construct: whole, on cells; Parent cell line of the mouse EphA10 overexpressing line not clearly stated
T2 sequence (looked up): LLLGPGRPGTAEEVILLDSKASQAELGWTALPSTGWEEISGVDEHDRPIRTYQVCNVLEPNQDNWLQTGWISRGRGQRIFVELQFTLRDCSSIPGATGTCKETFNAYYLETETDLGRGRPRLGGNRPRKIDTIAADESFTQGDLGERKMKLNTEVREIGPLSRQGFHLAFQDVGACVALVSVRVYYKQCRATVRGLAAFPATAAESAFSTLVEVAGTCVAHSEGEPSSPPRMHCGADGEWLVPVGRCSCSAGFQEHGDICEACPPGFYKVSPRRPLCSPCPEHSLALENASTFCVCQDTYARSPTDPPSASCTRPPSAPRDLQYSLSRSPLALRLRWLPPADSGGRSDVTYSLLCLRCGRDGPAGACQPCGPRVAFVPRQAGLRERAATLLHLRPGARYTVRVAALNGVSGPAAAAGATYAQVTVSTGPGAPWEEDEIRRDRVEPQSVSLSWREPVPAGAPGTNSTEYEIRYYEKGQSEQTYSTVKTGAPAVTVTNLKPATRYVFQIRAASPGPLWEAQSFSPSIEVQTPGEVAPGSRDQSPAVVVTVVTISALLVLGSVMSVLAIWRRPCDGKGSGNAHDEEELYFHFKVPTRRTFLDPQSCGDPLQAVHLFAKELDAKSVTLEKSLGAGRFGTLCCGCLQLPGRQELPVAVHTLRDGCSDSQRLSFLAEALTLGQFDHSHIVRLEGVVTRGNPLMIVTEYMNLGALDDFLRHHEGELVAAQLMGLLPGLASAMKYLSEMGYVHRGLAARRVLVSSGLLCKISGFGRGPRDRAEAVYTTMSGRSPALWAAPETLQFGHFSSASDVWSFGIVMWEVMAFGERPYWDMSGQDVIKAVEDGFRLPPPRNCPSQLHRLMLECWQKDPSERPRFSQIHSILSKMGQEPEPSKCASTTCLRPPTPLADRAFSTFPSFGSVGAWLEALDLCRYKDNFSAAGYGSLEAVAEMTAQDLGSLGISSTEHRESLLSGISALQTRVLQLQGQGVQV
Description: flow cytometry on mouse EphA10 overexpressing cells, 500 ng antibody.

The target in assay [3] is T3, mEphA10-Fc (mouse EphA10 fused with human Fc) (mouse; human, UniProt Q8BYG9 23-565).
T3 construct: extracellular domain; not shown: human Fc
T3 sequence (looked up): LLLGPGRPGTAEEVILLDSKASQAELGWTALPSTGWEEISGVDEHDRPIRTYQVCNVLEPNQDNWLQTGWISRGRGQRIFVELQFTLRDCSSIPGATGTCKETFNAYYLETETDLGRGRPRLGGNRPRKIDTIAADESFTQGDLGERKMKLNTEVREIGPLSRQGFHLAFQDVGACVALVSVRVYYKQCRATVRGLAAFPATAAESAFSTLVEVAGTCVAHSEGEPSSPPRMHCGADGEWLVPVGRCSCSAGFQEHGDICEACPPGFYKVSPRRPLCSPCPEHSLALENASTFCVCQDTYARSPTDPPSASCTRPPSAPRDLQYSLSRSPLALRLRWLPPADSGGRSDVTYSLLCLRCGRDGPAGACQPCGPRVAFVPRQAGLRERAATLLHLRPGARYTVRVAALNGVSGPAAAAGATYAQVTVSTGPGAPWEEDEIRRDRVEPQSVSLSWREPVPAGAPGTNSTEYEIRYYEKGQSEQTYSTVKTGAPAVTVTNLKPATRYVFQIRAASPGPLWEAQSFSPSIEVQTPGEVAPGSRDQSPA
Description: ELISA, mEphA10-Fc coated, anti-human kappa HRP.

B1: EphA10-specific humanized antibody 1-1 (antibody, V domains shown)
VH: QVTLKESGPTLVKPTQTLTLTCTFSGFSLSTSGMGVGWIRQPPGKALEWLAHIWWDDVKRYNPALKSRLTITKDTSKNQVVLTMTNMDPVDTATYYCARTSFPAGVDYWGQGTLVTVSS
VL: DVVMTQSPLSLPVTLGQPASISCRSSQSLQNSNGNTCLNWFQQRPGQSPRRLIYRVSNRFSGVPDRFSGSGSGTDFTLKISRVEAEDVGVYYCLQVTHVPFTFGQGTKLEIKR
notes: Expressed in Expi293F cells in IgG form; detected with anti-human kappa chain; also called IMGT 1-1
Regarding B1, the binding result in assay [1] and in assay [2] was “binds” each time.

B2: antibody A.7 (antibody, V domains shown)
VH: QVTLKESGPTLVKPTQTLTLTCTFSGFSLSTSGMGVGWIRQPPGKALEWLAHIWWDDVKRYNPALKSRLTITKDTSKNQVVLTMTNMDPVDTATYYCARTSFPAGVDYWGQGTLVTVSS
VL: DVVMTQSPLSLPVTLGQPASISCRSSQSLQNSNGNTYLNWFQQRPGQSPRRLIYRVSNRFSGVPDRFSGSGSGTDFTLKISRVEAEDVGVYYCLQGTHVPFTFGQGTKLEIKR
notes: also called A7 antibody
With B2, the binding result in assay [3] was “binds”.

B3: antibody 2-W (antibody, V domains shown)
VH: QVTLKESGPTLVKPTQTLTLTCTFSGFSLSTSGMGVGWIRQPPGKALEWLAHIWWDDVKRYNPALKSRLTITKDTSKNQVVLTMTNMDPVDTATYYCARTSFPAGVDYWGQGTLVTVSS
VL: DIVMTQTPLSLSVTPGQPASISCRSSQSLQNSNGNTWLNWYLQKPGQSPQLLIYRVSNRFSGVPDRFSGSGSGTDFTLKISRVEAEDVGVYYCLQVTHVPFTFGQGTKLEIKR
notes: 1-2 with the free light chain CDR cysteine replaced by tryptophan; IgG form; also called 2W antibody; W2
With B3, the binding result in assay [3] is “binds”.

B4: EphA10-specific humanized antibody 1-2 (antibody, V domains shown)
VH: QVTLKESGPTLVKPTQTLTLTCTFSGFSLSTSGMGVGWIRQPPGKALEWLAHIWWDDVKRYNPALKSRLTITKDTSKNQVVLTMTNMDPVDTATYYCARTSFPAGVDYWGQGTLVTVSS
VL: DIVMTQTPLSLSVTPGQPASISCRSSQSLQNSNGNTCLNWYLQKPGQSPQLLIYRVSNRFSGVPDRFSGSGSGTDFTLKISRVEAEDVGVYYCLQVTHVPFTFGQGTKLEIKR
notes: Expressed in Expi293F cells in IgG form; detected with anti-human kappa chain; also called IMGT 1-2
As to B4, the binding result in assay [1] and in assay [2] was “binds” each time.
